Experimental data published in PMC2113458.

Target: platelet membrane actin (human (endogenous in platelets)) (UniProt P60709)
Assay: SEC

percent of surface GPIIb and III associated with the actin-rich void volume peak: > 85%
Substance: glycoprotein IIb, form in the Triton X-100-insoluble fraction of platelet plasma membranes (natural protein)
